Our source for the Kd values is publication doi:10.1101/862326.

Read-outs that look alike come from different tables or passages of the source.

Common to all, as to assay: ITC
(In ITC the heat of successive injections is recorded.)

Series [1] has as its target T1, TRBP2-dsRBD1 (UniProt Q15633 1-105).
T1 sequence: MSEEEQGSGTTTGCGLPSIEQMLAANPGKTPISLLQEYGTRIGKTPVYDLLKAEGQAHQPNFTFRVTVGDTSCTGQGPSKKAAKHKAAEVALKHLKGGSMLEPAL

The target of series [2] is T2, dADAR-dsRBD1 (UniProt Q9NII1 48-140).
T2 sequence: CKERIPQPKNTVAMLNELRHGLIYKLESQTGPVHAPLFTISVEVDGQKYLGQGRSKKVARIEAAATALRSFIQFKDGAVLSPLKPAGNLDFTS

In series [3] the target is T2, dADAR-dsRBD1. The source holds these as a separate data set.
Series [4] addresses T1, TRBP2-dsRBD1. This is another data set of the same source.
Series [5] concerns the target T2, dADAR-dsRBD1. The source holds these as a separate data set.
In series [6] the target is T1, TRBP2-dsRBD1. This is another data set of the same source.
In series [7] the target is T1, TRBP2-dsRBD1. The source holds these as a separate data set.
For series [8], the target named is T2, dADAR-dsRBD1. This is another data set of the same source.
Series [9] concerns the target T2, dADAR-dsRBD1. The source holds these as a separate data set.
Series [10] addresses T1, TRBP2-dsRBD1. This is another data set of the same source.

B1: miR-16-1-M (dsRNA)
RNA 1: UAGCAGCACGUAAAUAUUGGCG
RNA 2: CCAGUAUUAACGUGCUGCUGAA
B1: the figures for the Kd with TRBP2-dsRBD1 [1] and with dADAR-dsRBD1 [2] were 2120 ± 220 nM and 780 ± 240 nM, respectively.

B2: miR-16-1 (dsRNA)
RNA 1: UAGCAGCACGUAAAUAUUGGCG
RNA 2: CCAGUAUUAACUGUGCUGCUGAA
B2: the Kd (as a rule, the concentration at which binding is half-saturated) with dADAR-dsRBD1 [3] came out at 270 ± 50 nM; in the series with TRBP2-dsRBD1 [4] it was 890 ± 210 nM.

B3: miR-16-1-D (dsRNA)
RNA 1: UAGCAGCACGUAAAUAUUGGCG
RNA 2: CCAGUAUUUACGUGCUGCUGAA
B3: the Kd amounted to 430 ± 100 nM with dADAR-dsRBD1 [5] and 500 ± 40 nM with TRBP2-dsRBD1 [6].

B4: D10RNA (dsRNA)
RNA 1: UUAUAAAUGC
RNA 2: GCAUUUAUGA
For B4, the Kd with TRBP2-dsRBD1 [7] turned out to be 2210 ± 510 nM; in the series with dADAR-dsRBD1 [8] it was 210 ± 100 nM.

B5: miR-16-1-B (dsRNA)
RNA 1: UAGCAGCACGUAAAUAUUGGCG
RNA 2: CCAGUAUUUACUGUGCUGCUGAA
As for B5, the values for the Kd in the series with dADAR-dsRBD1 [9] and with TRBP2-dsRBD1 [10] were 270 ± 70 nM and 690 ± 130 nM, respectively.
